Measurements from patent US20100196934A1.
Where “and” joins values, the source holds several entries; their conditions need not be identical. Equal values may be shown once. Read-outs that look alike come from different tables or passages of the source.

How the values were obtained:
[1] = molecular target: Syrian hamster PrP^Sc (scrapie-infected SHa brain homogenate) (Syrian hamster)
[2] = molecular target: Syrian hamster PrP^C (normal SHa brain homogenate) (Syrian hamster); experiment: sandwich ELISA, capture 3F4; normal SHa BH, PK 0 ug/mL, NaOH-denatured
[3] = molecular target: Syrian hamster PrP^C (normal SHa brain homogenate) (Syrian hamster); experiment: sandwich ELISA, capture 3F4; normal SHa BH, PK 5 ug/mL, NaOH-denatured
[4] = molecular target: Syrian hamster PrP^C (normal SHa brain homogenate) (Syrian hamster); experiment: sandwich ELISA, capture 3F4; normal SHa BH, PK 10 ug/mL, NaOH-denatured
[5] = molecular target: Syrian hamster PrP^C (normal SHa brain homogenate) (Syrian hamster); experiment: sandwich ELISA, capture 3F4; normal SHa BH, PK 20 ug/mL, NaOH-denatured
[6] = molecular target: Syrian hamster PrP^C (normal SHa brain homogenate) (Syrian hamster); experiment: sandwich ELISA, capture 3F4; normal SHa BH, PK 50 ug/mL, NaOH-denatured
[7] = molecular target: Syrian hamster PrP^C (normal SHa brain homogenate) (Syrian hamster); experiment: sandwich ELISA, capture 3F4; normal SHa BH, PK 100 ug/mL, NaOH-denatured
[8] = molecular target: Syrian hamster PrP^C (normal SHa brain homogenate) (Syrian hamster); experiment: sandwich ELISA, capture 3F4; normal SHa BH, PK 25 ug/mL, GdnHCl-denatured
[9] = molecular target: Syrian hamster PrP^C (normal SHa brain homogenate) (Syrian hamster); experiment: sandwich ELISA, capture 3F4; normal SHa BH, trypsin 0 ug/mL, not denatured
[10] = molecular target: Syrian hamster PrP^C (normal SHa brain homogenate) (Syrian hamster); experiment: sandwich ELISA, capture 3F4; normal SHa BH, trypsin 25 ug/mL, not denatured
[11] = molecular target: Syrian hamster PrP^C (normal SHa brain homogenate) (Syrian hamster); experiment: sandwich ELISA, capture 3F4; normal SHa BH, trypsin 50 ug/mL, not denatured
[12] = molecular target: Syrian hamster PrP^C (normal SHa brain homogenate) (Syrian hamster); experiment: sandwich ELISA, capture POM17; normal SHa BH, PK 25 ug/mL, GdnHCl-denatured
[13] = molecular target: Syrian hamster PrP^C (normal SHa brain homogenate) (Syrian hamster); experiment: sandwich ELISA, capture 3F4; normal SHa BH, trypsin 0 ug/mL, NaOH-denatured
[14] = molecular target: Syrian hamster PrP^C (normal SHa brain homogenate) (Syrian hamster); experiment: sandwich ELISA, capture 3F4; normal SHa BH, trypsin 5 ug/mL, NaOH-denatured
[15] = molecular target: Syrian hamster PrP^C (normal SHa brain homogenate) (Syrian hamster); experiment: sandwich ELISA, capture 3F4; normal SHa BH, trypsin 100 ug/mL, not denatured
[16] = molecular target: Syrian hamster PrP^C (normal SHa brain homogenate) (Syrian hamster); experiment: sandwich ELISA, capture 3F4; normal SHa BH, trypsin 10 ug/mL, NaOH-denatured
[17] = molecular target: Syrian hamster PrP^C (normal SHa brain homogenate) (Syrian hamster); experiment: sandwich ELISA, capture 3F4; normal SHa BH, trypsin 20 ug/mL, NaOH-denatured
[18] = molecular target: Syrian hamster PrP^C (normal SHa brain homogenate) (Syrian hamster); experiment: sandwich ELISA, capture 3F4; normal SHa BH, trypsin 50 ug/mL, NaOH-denatured
[19] = molecular target: Syrian hamster PrP^Sc (scrapie-infected SHa brain homogenate) (Syrian hamster); experiment: sandwich ELISA, capture 3F4; infectious SHa BH, PK 25 ug/mL, GdnHCl-denatured
[20] = molecular target: Syrian hamster PrP^C (normal SHa brain homogenate) (Syrian hamster); experiment: sandwich ELISA, capture 3F4; normal SHa BH, trypsin 100 ug/mL, NaOH-denatured
[21] = molecular target: Syrian hamster PrP^C (normal SHa brain homogenate) (Syrian hamster); experiment: sandwich ELISA, capture 3F4; normal SHa BH, trypsin 25 ug/mL, GdnHCl-denatured
[22] = molecular target: Syrian hamster PrP^Sc (scrapie-infected SHa brain homogenate) (Syrian hamster); experiment: sandwich ELISA, capture POM17; infectious SHa BH, PK 25 ug/mL, GdnHCl-denatured
[23] = molecular target: Human PrP^C (normal human plasma; normal human brain homogenate) (human); experiment: sandwich ELISA, capture 3F4; normal human plasma, trypsin 0 ug/mL, not denatured
[24] = molecular target: Syrian hamster PrP^C (normal SHa brain homogenate) (Syrian hamster); experiment: sandwich ELISA, capture POM17; normal SHa BH, trypsin 25 ug/mL, GdnHCl-denatured
[25] = molecular target: Syrian hamster PrP^Sc (scrapie-infected SHa brain homogenate) (Syrian hamster); experiment: sandwich ELISA, capture 3F4; scrapie-infected SHa BH, PK 0 ug/mL, NaOH-denatured
[26] = molecular target: Syrian hamster PrP^Sc (scrapie-infected SHa brain homogenate) (Syrian hamster); experiment: sandwich ELISA, capture 3F4; scrapie-infected SHa BH, PK 5 ug/mL, NaOH-denatured
[27] = molecular target: Bovine recombinant PrP (bovine); experiment: direct ELISA, coated denatured rPrP 1 ng/assay
[28] = molecular target: Deer recombinant PrP (deer); experiment: direct ELISA, coated denatured rPrP 1 ng/assay
[29] = molecular target: Human recombinant PrP (human); experiment: direct ELISA, coated denatured rPrP 1 ng/assay
[30] = molecular target: Mouse recombinant PrP (mouse); experiment: direct ELISA, coated denatured rPrP 1 ng/assay
[31] = molecular target: Sheep recombinant PrP (sheep); experiment: direct ELISA, coated denatured rPrP 1 ng/assay
[32] = molecular target: Bovine recombinant PrP (bovine); experiment: direct ELISA, coated denatured rPrP 0.1 ng/assay
[33] = molecular target: Deer recombinant PrP (deer); experiment: direct ELISA, coated denatured rPrP 0.1 ng/assay
[34] = molecular target: Human recombinant PrP (human); experiment: direct ELISA, coated denatured rPrP 0.1 ng/assay
[35] = molecular target: Mouse recombinant PrP (mouse); experiment: direct ELISA, coated denatured rPrP 0.1 ng/assay
[36] = molecular target: Sheep recombinant PrP (sheep); experiment: direct ELISA, coated denatured rPrP 0.1 ng/assay
Mouse BH PrP^Sc (mouse) [37] = experiment: direct ELISA, coated denatured mouse BH PrP^Sc 1 mg BH/assay
Mouse BH PrP^Sc (mouse) [38] = experiment: direct ELISA, coated denatured mouse BH PrP^Sc 0.1 mg BH/assay
[39] = molecular target: Human PrP^C (normal human plasma; normal human brain homogenate) (human)
[40] = molecular target: Human PrP^Sc of vCJD brain homogenate (vCJD MM, White strain) (human)
[41] = molecular target: Human PrP^Sc of vCJD brain homogenate (vCJD MM, White strain) (human); experiment: sandwich ELISA, capture SAF-32; vCJD human BH, PK 25 ug/mL, un-denatured
[42] = molecular target: Human PrP^C (normal human plasma; normal human brain homogenate) (human); experiment: sandwich ELISA, capture SAF-32; normal human BH, PK 25 ug/mL, un-denatured
[43] = molecular target: Human PrP^Sc of vCJD brain homogenate (vCJD MM, White strain) (human); experiment: sandwich ELISA, capture SAF-32; vCJD human BH, trypsin 25 ug/mL, un-denatured
[44] = molecular target: Human PrP^C (normal human plasma; normal human brain homogenate) (human); experiment: sandwich ELISA, capture SAF-32; normal human BH, trypsin 25 ug/mL, un-denatured
[45] = molecular target: Human PrP^Sc of vCJD brain homogenate (vCJD MM, White strain) (human); experiment: sandwich ELISA, capture SAF-32; vCJD human BH, PK 25 ug/mL, 4M GdnHCl-denatured

POM2 antibody
RLU [1]: 2370 RLU and 2250 RLU
RLU [2]: 1950 RLU
RLU [3]: 84.1 RLU
RLU [4]: 50.2 RLU
RLU [5]: 37.1 RLU
RLU [6]: 15.8 RLU
RLU [7]: 4.6 RLU
RLU [8]: 10 RLU
RLU [9]: 2940 RLU
RLU [10]: 20.5 RLU
RLU [11]: 14.9 RLU
RLU [12]: 13.4 RLU
RLU [13]: 2140 RLU
RLU [14]: 33.2 RLU
RLU [15]: 11.7 RLU
RLU [16]: 19.7 RLU
RLU [17]: 8.5 RLU
RLU [18]: 3.4 RLU
RLU [19]: 527 RLU
RLU [20]: 3.4 RLU
RLU [21]: 21.4 RLU
RLU [22]: 596 RLU
RLU [23]: 195 RLU
RLU [24]: 70.6 RLU
RLU [25]: 2290 RLU
RLU [26]: 2310 RLU

HuM D18 (antibody)
RLU [27]: 132 RLU
RLU [28]: 121 RLU
RLU [29]: 94.7 RLU
RLU [30]: 1770 RLU
RLU [31]: 186 RLU
RLU [32]: 109 RLU
RLU [33]: 134 RLU
RLU [34]: 77.5 RLU
RLU [35]: 366 RLU
RLU [36]: 169 RLU
RLU (Mouse BH PrP^Sc (mouse) [37]): 2230 RLU
RLU (Mouse BH PrP^Sc (mouse) [38]): 376 RLU

Mouse anti Prion (MAB5424) (antibody)
RLU [27]: 827 RLU
RLU [28]: 118 RLU
RLU [29]: 67.6 RLU
RLU [30]: 605 RLU
RLU [31]: 899 RLU
RLU [32]: 84.6 RLU
RLU [33]: 104 RLU
RLU [34]: 76.1 RLU
RLU [35]: 90.1 RLU
RLU [36]: 214 RLU
RLU (Mouse BH PrP^Sc (mouse) [37]): 601 RLU
RLU (Mouse BH PrP^Sc (mouse) [38]): 167 RLU

monoclonal antibody 3F4
RLU [39]: 50.4 RLU and 18.1 RLU
RLU [40]: 1650 RLU
RLU [41]: 10 RLU
RLU [42]: 7.7 RLU
RLU [43]: 15.1 RLU
RLU [44]: 6.1 RLU
RLU [45]: 226 RLU

mAb 6H4 (antibody)
RLU [27]: 691 RLU
RLU [28]: 222 RLU
RLU [29]: 192 RLU
RLU [30]: 332 RLU
RLU [31]: 160 RLU
RLU [32]: 89.1 RLU
RLU [33]: 92.4 RLU
RLU [34]: 72.7 RLU
RLU [35]: 104 RLU
RLU [36]: 125 RLU
RLU (Mouse BH PrP^Sc (mouse) [37]): 610 RLU
RLU (Mouse BH PrP^Sc (mouse) [38]): 178 RLU

Mouse anti Prion (SAF-61) (antibody)
RLU [27]: 136 RLU
RLU [28]: 190 RLU
RLU [29]: 101 RLU
RLU [30]: 464 RLU
RLU [31]: 113 RLU
RLU [32]: 67.6 RLU
RLU [33]: 150 RLU
RLU [34]: 90.4 RLU
RLU [35]: 142 RLU
RLU [36]: 115 RLU
RLU (Mouse BH PrP^Sc (mouse) [37]): 579 RLU
RLU (Mouse BH PrP^Sc (mouse) [38]): 169 RLU
